Source: patent US20250043302A1, “MUTATED HYDROXYPHENYLPYRUVATE DIOXYGENASE POLYPEPTIDE, AND CODING GENE AND USE THEREOF” (BEIJING DABEINONG BIOTECHNOLOGY CO., LTD., priority 2021, published 2025)
Numbering of substitutions follows the chain as printed. In names and notes the source's numbering stands.

B1: GmHPPD-02: nucleotide sequence encoding wild-type Glycine max HPPD; vector DBN11746 (nucleic acid)
DNA: ATGCCAATGTACACACCATCGCTCTCCGCCCCTTCTTCCAACCATATTCAGCCATCCGTGACTCTGCCTCTCTACATCACAACCACCAAGTTGAACCTGAAGCAGCAGCACCATACGACTCCTATGCCTATACCCATGTGCAATGAGATCCAAGCACAGGCTCAGGCACAAGCTCAACCCGGATTCAAACTCGTGGGATTCAAGAACTTCGTCCGTACCAATCCAAAATCTGACCGCTTCCAGGTGAACAGATTCCACCACATAGAGTTTTGGTGTACTGATGCAACGAATGCTTCGAGGAGGTTTTCATGGGGCTTAGGCATGCCGATTGTAGCAAAGTCAGACCTTTCTACAGGGAACCAAATTCATGCAAGCTATCTGCTCCGCTCAGGTGATTTGTCTTTCTTGTTCTCAGCTCCATATTCTCCATCATTATCTGCTGGGTCATCAGCAGCATCTAGTGCGTCGATCCCTAGCTTTGATGCCGCCACCTGCCTCGCCTTCGCCGCCAAACATGGATTTGGTGTTCGCGCCATTGCTCTTGAGGTTGCCGATGCCGAGGCTGCTTTTAGCGCCTCCGTCGCCAAGGGAGCTGAGCCTGCGTCACCTCCTGTTCTTGTTGATGATCGAACTGGTTTTGCTGAAGTGCGTCTTTACGGCGACGTGGTGCTCAGATATGTTAGTTACAAGGATGCTGCTCCTCAAGCGCCGCACGCTGATCCTTCAAGATGGTTTCTTCCGGGGTTTGAGGCCGCTGCTAGTTCATCTTCCTTCCCGGAGTTGGATTACGGCATACGGCGGCTTGACCATGCTGTCGGCAATGTTCCTGAGCTTGCTCCGGCGGTACGGTACTTGAAAGGTTTCTCCGGGTTCCATGAATTTGCAGAGTTCACGGCGGAAGATGTTGGAACAAGTGAAAGCGGATTGAATTCTGTTGTTTTGGCCAACAACAGTGAAACTGTTCTGCTCCCCCTCAATGAACCAGTTTATGGCACAAAGCGCAAGAGCCAGATTGAAACATATCTCGAGCACAATGAAGGCGCCGGCGTCCAGCATCTTGCTTTGGTGACTCATGATATCTTCACAACACTTAGGGAGATGAGGAAGAGGAGTTTCCTCGGCGGGTTTGAATTCATGCCCAGTCCCCCGCCGACCTACTATGCAAATCTGCACAACAGGGCTGCAGATGTGCTGACTGTAGACCAGATCAAGCAATGTGAAGAACTTGGAATTTTAGTGGATAGAGACGACCAAGGTACACTACTTCAAATATTCACCAAACCAGTCGGTGACAGACCAACAATTTTCATCGAGATTATACAAAGAATTGGATGCATGGTCGAGGATGAAGAAGGGAAGGTGTACCAGAAGGGAGCATGTGGTGGTTTTGGGAAAGGAAATTTTTCTGAGCTGTTTAAATCCATCGAGGAATATGAGAAAACCTTAGAAGCTAAAAGAACTGCATGA
modifications: GmHPPD-02 Nucleotide Sequence
notes: vector DBN11746
B2: GmHPPDm-F372A-02: nucleotide sequence encoding Glycine max HPPD with F372A; vector DBN11747 (nucleic acid)
DNA: B1 DNA with T1273G, T1274C
modifications: GmHPPDm-F372A-02 Nucleotide Sequence
notes: vector DBN11747
B3: GmHPPDm-F372A-F383W-02: nucleotide sequence encoding Glycine max HPPD with F372A+F383W; vector DBN11749 (nucleic acid)
DNA: B1 DNA with T1273G, T1274C, T1307G, C1308G
modifications: GmHPPDm-F372A-F383W-02 Nucleotide Sequence
notes: vector DBN11749

What follows are molecules tested on Arabidopsis thaliana T1 plants (assay: Mesotrione tolerance of transgenic Arabidopsis thaliana T1 plants (spray, bleached leaf area grade, damage score)). Conditions: mesotrione 52.5 g ai/ha; Arabidopsis thaliana T1 plants.
Type: in vivo
Set-up: Scores: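 damage score 0-100 computed as Σ(N×S)/(T×M)×100 over grades 0-3 with higher meaning more damage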
How it was run: (§1)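 Read-out: per-plant damage grade 0–3 from proportion of bleached leaf area at 7 DAT (1 <50%, 2 >50%, 3 100%). Plants were T1 transformants, glufosinate-selected, plus wild-type CK, sprayed 18 days post-sowing. Rates: topramezone 25–200, isoxaflutole 35–280, mesotrione 52.5–420 g ai/ha.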
With B1 the Resistance evaluation was “Non-resistant” and the Scores was 100. With B2 the Resistance evaluation was “Poorly resistant” and the Scores was 67. B3 was tested, and the Resistance evaluation was “Moderately” and the Scores was 23.

Same assay, conditions: mesotrione 52.5 g ai/ha; Arabidopsis thaliana T1 plants; 16 plants
For B1, the “Grade 0 (classification and statistics of the grade of pesticide damage; number of plants)” value was 0, the “Grade 1 (classification and statistics of the grade of pesticide damage; number of plants)” value was 0 and the “Grade 2 (classification and statistics of the grade of pesticide damage; number of plants)” value was 0. For the same molecule, the “Grade 3 (classification and statistics of the grade of pesticide damage; number of plants)” value was 16. With B2 the “Grade 0 (classification and statistics of the grade of pesticide damage; number of plants)” value was 0, the “Grade 1 (classification and statistics of the grade of pesticide damage; number of plants)” value was 2 and the “Grade 2 (classification and statistics of the grade of pesticide damage; number of plants)” value was 12. The “Grade 3 (classification and statistics of the grade of pesticide damage; number of plants)” value was 2. For B3, the “Grade 0 (classification and statistics of the grade of pesticide damage; number of plants)” value was 6, the “Grade 1 (classification and statistics of the grade of pesticide damage; number of plants)” value was 9 and the “Grade 2 (classification and statistics of the grade of pesticide damage; number of plants)” value was 1. For the same molecule, the “Grade 3 (classification and statistics of the grade of pesticide damage; number of plants)” value was 0.

Same assay, conditions: mesotrione 105 g ai/ha; Arabidopsis thaliana T1 plants
With B1 the Resistance evaluation was “Non-resistant” and the Scores was 100. In the case of B2, the Resistance evaluation is reported as “Non-resistant” and the Scores is reported as 100. In the case of B3, the Resistance evaluation is reported as “Poorly resistant” and the Scores is reported as 46.

Same assay, conditions: mesotrione 105 g ai/ha; Arabidopsis thaliana T1 plants; 16 plants
For B1, the “Grade 0 (classification and statistics of the grade of pesticide damage; number of plants)” value was 0, the “Grade 1 (classification and statistics of the grade of pesticide damage; number of plants)” value was 0 and the “Grade 2 (classification and statistics of the grade of pesticide damage; number of plants)” value was 0. For the same molecule, the “Grade 3 (classification and statistics of the grade of pesticide damage; number of plants)” value was 16. For B2, the “Grade 0 (classification and statistics of the grade of pesticide damage; number of plants)” value was 0, the “Grade 1 (classification and statistics of the grade of pesticide damage; number of plants)” value was 0 and the “Grade 2 (classification and statistics of the grade of pesticide damage; number of plants)” value was 0. The “Grade 3 (classification and statistics of the grade of pesticide damage; number of plants)” value was 16. B3 was tested, and the “Grade 0 (classification and statistics of the grade of pesticide damage; number of plants)” value was 2, the “Grade 1 (classification and statistics of the grade of pesticide damage; number of plants)” value was 7 and the “Grade 2 (classification and statistics of the grade of pesticide damage; number of plants)” value was 6. For the same molecule, the “Grade 3 (classification and statistics of the grade of pesticide damage; number of plants)” value was 1.

What follows are molecules tested on Arabidopsis thaliana T1 plants (assay: Isoxaflutole tolerance of transgenic Arabidopsis thaliana T1 plants (spray, bleached leaf area grade, damage score)). Conditions: isoxaflutole 35 g ai/ha (0.5x field concentration), spray, Arabidopsis thaliana T1 plants.
Type: in vivo
Set-up: Scores (pesticide damage): scale not given here
How it was run: as §1
In the case of B1, the Resistance evaluation is reported as “Non-resistant” and the “Scores (pesticide damage)” value is reported as 100. For B2, the Resistance evaluation was “Poorly” and the “Scores (pesticide damage)” value was 65. For B3, the Resistance evaluation was “Highly” and the “Scores (pesticide damage)” value was 15.

Same assay, conditions: isoxaflutole 35 g ai/ha (0.5x field concentration), spray, Arabidopsis thaliana T1 plants, 16 plants
For B1, the “Classification and statistics of the grade of pesticide damage: Grade 0 (number of plants)” value was 0, the “Classification and statistics of the grade of pesticide damage: Grade 1 (number of plants)” value was 0 and the “Classification and statistics of the grade of pesticide damage: Grade 2 (number of plants)” value was 0. For the same molecule, the “Classification and statistics of the grade of pesticide damage: Grade 3 (number of plants)” value was 16. With B2 the “Classification and statistics of the grade of pesticide damage: Grade 0 (number of plants)” value was 0, the “Classification and statistics of the grade of pesticide damage: Grade 1 (number of plants)” value was 3 and the “Classification and statistics of the grade of pesticide damage: Grade 2 (number of plants)” value was 11. The “Classification and statistics of the grade of pesticide damage: Grade 3 (number of plants)” value was 2. For B3, the “Classification and statistics of the grade of pesticide damage: Grade 0 (number of plants)” value was 9, the “Classification and statistics of the grade of pesticide damage: Grade 1 (number of plants)” value was 7 and the “Classification and statistics of the grade of pesticide damage: Grade 2 (number of plants)” value was 0. The “Classification and statistics of the grade of pesticide damage: Grade 3 (number of plants)” value was 0.

Same assay, conditions: isoxaflutole 70 g ai/ha (1x field concentration), spray, Arabidopsis thaliana T1 plants
For B1, the Resistance evaluation was “Non-resistant” and the “Scores (pesticide damage)” value was 100. In the case of B2, the Resistance evaluation is reported as “Non-resistant” and the “Scores (pesticide damage)” value is reported as 100. B3 was tested, and the Resistance evaluation was “Poorly” and the “Scores (pesticide damage)” value was 40.

Same assay, conditions: isoxaflutole 70 g ai/ha (1x field concentration), spray, Arabidopsis thaliana T1 plants, 16 plants
B1 was tested, and the “Classification and statistics of the grade of pesticide damage: Grade 0 (number of plants)” value was 0, the “Classification and statistics of the grade of pesticide damage: Grade 1 (number of plants)” value was 0 and the “Classification and statistics of the grade of pesticide damage: Grade 2 (number of plants)” value was 0. For the same molecule, the “Classification and statistics of the grade of pesticide damage: Grade 3 (number of plants)” value was 16. In the case of B2, the “Classification and statistics of the grade of pesticide damage: Grade 0 (number of plants)” value is reported as 0, the “Classification and statistics of the grade of pesticide damage: Grade 1 (number of plants)” value is reported as 0 and the “Classification and statistics of the grade of pesticide damage: Grade 2 (number of plants)” value is reported as 0. The “Classification and statistics of the grade of pesticide damage: Grade 3 (number of plants)” value was 16. With B3 the “Classification and statistics of the grade of pesticide damage: Grade 0 (number of plants)” value was 4, the “Classification and statistics of the grade of pesticide damage: Grade 1 (number of plants)” value was 6 and the “Classification and statistics of the grade of pesticide damage: Grade 2 (number of plants)” value was 5. For the same molecule, the “Classification and statistics of the grade of pesticide damage: Grade 3 (number of plants)” value was 1.

The molecules below were run on Arabidopsis thaliana T1 plants (assay: Topramezone tolerance of transgenic Arabidopsis thaliana T1 plants (spray, bleached leaf area grade, damage score)). Conditions: number of plants; topramezone 25 g ai/ha (1×), 7 DAT; Table 4.
Type: in vivo
How it was run: as §1
For B1, the “Classification and statistics of the grade of pesticide damage: Grade 0” value was 0, the “Classification and statistics of the grade of pesticide damage: Grade 1” value was 0 and the “Classification and statistics of the grade of pesticide damage: Grade 2” value was 0. The “Classification and statistics of the grade of pesticide damage: Grade 3” value was 16. In the case of B2, the “Classification and statistics of the grade of pesticide damage: Grade 0” value is reported as 0, the “Classification and statistics of the grade of pesticide damage: Grade 1” value is reported as 12 and the “Classification and statistics of the grade of pesticide damage: Grade 2” value is reported as 4. The “Classification and statistics of the grade of pesticide damage: Grade 3” value was 0. In the case of B3, the “Classification and statistics of the grade of pesticide damage: Grade 0” value is reported as 9, the “Classification and statistics of the grade of pesticide damage: Grade 1” value is reported as 7 and the “Classification and statistics of the grade of pesticide damage: Grade 2” value is reported as 0. The “Classification and statistics of the grade of pesticide damage: Grade 3” value was 0.

Same assay, conditions: number of plants; topramezone 100 g ai/ha (4×), 7 DAT; Table 4
For B1, the “Classification and statistics of the grade of pesticide damage: Grade 0” value was 0, the “Classification and statistics of the grade of pesticide damage: Grade 1” value was 0 and the “Classification and statistics of the grade of pesticide damage: Grade 2” value was 0. For the same molecule, the “Classification and statistics of the grade of pesticide damage: Grade 3” value was 16. B2 was tested, and the “Classification and statistics of the grade of pesticide damage: Grade 0” value was 0, the “Classification and statistics of the grade of pesticide damage: Grade 1” value was 0 and the “Classification and statistics of the grade of pesticide damage: Grade 2” value was 0. For the same molecule, the “Classification and statistics of the grade of pesticide damage: Grade 3” value was 16. For B3, the “Classification and statistics of the grade of pesticide damage: Grade 0” value was 5, the “Classification and statistics of the grade of pesticide damage: Grade 1” value was 6 and the “Classification and statistics of the grade of pesticide damage: Grade 2” value was 4. For the same molecule, the “Classification and statistics of the grade of pesticide damage: Grade 3” value was 1.

Same assay, conditions: pesticide damage score 0-100; topramezone 25 g ai/ha (1×), 7 DAT; Table 4
B1 gave a Scores of 100. For B2, the Scores was 42. With B3 the Scores was 15.

Same assay, conditions: pesticide damage score 0-100; topramezone 100 g ai/ha (4×), 7 DAT; Table 4
B1 showed a Scores of 100. Molecule B2 has a Scores of 100. Molecule B3 has a Scores of 35.

Same assay, conditions: topramezone 25 g ai/ha (1×), 7 DAT; Table 4
In the case of B1, the Resistance evaluation is reported as “non-resistant (non-resistant plants (scores 68-100))”. In the case of B2, the Resistance evaluation is reported as “poorly”. In the case of B3, the Resistance evaluation is reported as “highly”.

Same assay, conditions: topramezone 100 g ai/ha (4×), 7 DAT; Table 4
In the case of B1, the Resistance evaluation is reported as “non-resistant (non-resistant plants (scores 68-100))”. With B2 the Resistance evaluation was “non-resistant (non-resistant plants (scores 68-100))”. B3 was tested, and the Resistance evaluation was “poorly”.
